Measured values as given in article PMC4353692, “Structure of the Vacuolar H^+-ATPase Rotary Motor Reveals New Mechanistic Insights” (Structure(London, England:1993), 2015).

T1: Manduca sexta V-ATPase subunit H (Manduca sexta (endogenous in midgut), UniProt Q9U5N0 1-475)
T1 construct: V-type proton ATPase subunit H, Manduca sexta; source: purified from M. sexta midgut, as part of the V-ATPase holoenzyme
T1 sequence (looked up): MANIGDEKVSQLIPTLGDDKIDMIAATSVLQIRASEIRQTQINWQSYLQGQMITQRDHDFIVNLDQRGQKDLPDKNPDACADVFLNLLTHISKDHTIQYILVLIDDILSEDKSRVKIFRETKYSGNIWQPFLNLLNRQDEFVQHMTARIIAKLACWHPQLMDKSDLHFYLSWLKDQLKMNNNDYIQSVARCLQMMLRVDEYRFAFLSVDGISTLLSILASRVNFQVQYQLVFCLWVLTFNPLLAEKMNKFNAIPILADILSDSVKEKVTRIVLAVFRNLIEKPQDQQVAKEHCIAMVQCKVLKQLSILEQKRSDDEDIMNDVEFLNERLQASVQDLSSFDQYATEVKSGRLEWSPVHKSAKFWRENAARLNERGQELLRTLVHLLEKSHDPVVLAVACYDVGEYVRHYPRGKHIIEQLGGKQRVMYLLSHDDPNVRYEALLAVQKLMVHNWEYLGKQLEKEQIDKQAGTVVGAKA

B1: Manduca sexta V-ATPase subunit E (natural protein, Manduca sexta (endogenous in midgut), UniProt P31402 1-226, looked up)
chain: MALSDADVQKQIKHMMAFIEQEANEKAEEIDAKAEEEFNIEKGRLVQQQRLKIMEYYEKKEKQVELQKKIQSSNMLNQARLKVLKVREDHVRNVLDEARKRLAEVPKDIKLYSDLLVTLIVQALFQLVEPTVTLRVRQADKALVESLLGRAQQDYKAKIKKDVVLKIDNENFLPPDTCGGIELIAAKGRIKISNTLESRLELIAQQLLPEIRNALFGRNPNRKFTD
notes: V-type proton ATPase subunit E, Manduca sexta; Three copies in the holoenzyme (stator filaments S1, S2, S3); also called part of the EG stator filaments S1-S3; source: purified from M. sexta midgut, as part of the V-ATPase holoenzyme
B2: Manduca sexta V-ATPase subunit D (natural protein)
chain: not shown
notes: V-type proton ATPase subunit D, Manduca sexta; also called rotor axle; central axle; source: purified from M. sexta midgut, as part of the V-ATPase holoenzyme
B3: Manduca sexta V-ATPase subunit G (natural protein, Manduca sexta (endogenous in midgut), UniProt Q25532 1-117, looked up)
chain: MASQTHGIQQLLAAEKRAAEKVSEARKRKAKRLKQAKEEAQDEVEKYRQERERQFKEFEAKHMGTREGVAAKIDAETRIKIDEMNKMVQTQKEAVIKDVLNLVYDIKPELHINYRVV
notes: V-type proton ATPase subunit G, Manduca sexta; Three copies in the holoenzyme (stator filaments S1, S2, S3); also called part of the EG stator filaments S1-S3; source: purified from M. sexta midgut, as part of the V-ATPase holoenzyme

Legend:
Assay in all cases: cryo-EM structure; M. sexta V-ATPase holoenzyme purified from tissue, in C12E10; 9.4 Å reconstruction (gold standard FSC 0.143); homology models of the subunits flexibly fitted by MDFF; side chains not resolved
Settings in all cases: both partners purified
[1] = target: T2, Manduca sexta V-ATPase subunit C (Manduca sexta (endogenous in midgut), UniProt Q9U5N1 1-385)
T2 construct: V-type proton ATPase subunit C, Manduca sexta; source: purified from M. sexta midgut, as part of the V-ATPase holoenzyme
T2 sequence (Q9U5N1 whole entry): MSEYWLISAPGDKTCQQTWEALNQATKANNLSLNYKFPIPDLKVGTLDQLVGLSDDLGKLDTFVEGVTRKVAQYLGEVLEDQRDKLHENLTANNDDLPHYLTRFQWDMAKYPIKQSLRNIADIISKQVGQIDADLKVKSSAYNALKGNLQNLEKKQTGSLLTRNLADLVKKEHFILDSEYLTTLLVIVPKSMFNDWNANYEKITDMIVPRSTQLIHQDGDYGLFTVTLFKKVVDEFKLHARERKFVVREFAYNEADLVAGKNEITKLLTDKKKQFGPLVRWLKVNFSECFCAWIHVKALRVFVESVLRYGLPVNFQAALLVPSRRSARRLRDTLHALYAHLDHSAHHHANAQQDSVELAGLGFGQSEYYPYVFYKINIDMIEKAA

[2] = target: T1, Manduca sexta V-ATPase subunit H
[3] = target: T3, Manduca sexta V-ATPase subunit B (Manduca sexta (endogenous in midgut), UniProt P31401 1-494)
T3 construct: V-type proton ATPase subunit B, Manduca sexta; Three copies in the holoenzyme, (AB)3; source: purified from M. sexta midgut, as part of the V-ATPase holoenzyme
T3 sequence (P31401 whole entry): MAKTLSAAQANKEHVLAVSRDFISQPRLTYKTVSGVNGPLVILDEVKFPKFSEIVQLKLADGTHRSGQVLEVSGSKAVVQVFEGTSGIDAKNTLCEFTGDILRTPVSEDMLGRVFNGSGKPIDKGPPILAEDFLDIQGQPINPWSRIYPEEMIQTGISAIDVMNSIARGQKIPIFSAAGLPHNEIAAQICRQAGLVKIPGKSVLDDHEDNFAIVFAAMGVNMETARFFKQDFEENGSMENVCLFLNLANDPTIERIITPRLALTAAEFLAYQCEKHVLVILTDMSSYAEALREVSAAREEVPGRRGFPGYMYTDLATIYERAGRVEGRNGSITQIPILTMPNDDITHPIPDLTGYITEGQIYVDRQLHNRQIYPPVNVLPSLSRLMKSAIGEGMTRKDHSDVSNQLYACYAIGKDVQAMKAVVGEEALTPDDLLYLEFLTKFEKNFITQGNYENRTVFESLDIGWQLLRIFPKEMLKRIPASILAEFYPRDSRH

[4] = target: T4, Manduca sexta V-ATPase subunit A (Manduca sexta (endogenous in midgut), UniProt P31400 1-617)
T4 construct: V-type proton ATPase catalytic subunit A, Manduca sexta; Three copies in the holoenzyme, (AB)3; source: purified from M. sexta midgut, as part of the V-ATPase holoenzyme
T4 sequence (P31400 whole entry): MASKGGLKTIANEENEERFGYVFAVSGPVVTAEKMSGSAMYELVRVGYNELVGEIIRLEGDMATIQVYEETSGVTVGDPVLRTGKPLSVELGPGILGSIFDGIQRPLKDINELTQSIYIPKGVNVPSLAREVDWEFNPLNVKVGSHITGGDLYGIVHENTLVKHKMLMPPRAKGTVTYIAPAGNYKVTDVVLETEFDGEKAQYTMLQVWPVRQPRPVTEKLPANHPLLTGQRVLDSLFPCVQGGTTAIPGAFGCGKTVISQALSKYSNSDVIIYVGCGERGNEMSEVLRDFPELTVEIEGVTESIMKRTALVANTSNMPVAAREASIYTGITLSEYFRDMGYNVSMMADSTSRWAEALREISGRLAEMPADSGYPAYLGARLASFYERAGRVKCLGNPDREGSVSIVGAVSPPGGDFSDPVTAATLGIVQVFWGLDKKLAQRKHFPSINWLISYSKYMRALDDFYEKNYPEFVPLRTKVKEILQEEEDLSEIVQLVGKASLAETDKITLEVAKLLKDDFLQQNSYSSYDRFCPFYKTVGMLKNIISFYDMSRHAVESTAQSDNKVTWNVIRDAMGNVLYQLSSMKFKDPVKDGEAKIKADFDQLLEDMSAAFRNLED

[5] = target: B1

binding result [1]	binding result [2]	binding result [3]	binding result [4]	binding result [5]	Binder
binds	binds	–	–	–	B1
–	–	binds	binds	–	B2
binds	binds	–	–	binds	B3
